Measured values taken from the supplement of paper PMC9876800.

Tested on: peptide library, one residue held at a place counted from the S/T acceptor
Assay: relative phosphorylation of the sub-library (ratio to the mean residue at this position); human; higher = residue favoured
Details: G fixed; at -3
Summary of the method: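 Purified recombinant kinases (human or orthologue constructs) were incubated in 384-well plates with biotinylated degenerate peptide sub-libraries, each fixing one residue at one position around a central Ser/Thr. Peptides were at 50 μM, with 50 μM ATP spiked with γ-32P-ATP, for 90 min under kinase-specific conditions. Spots on streptavidin membranes were phosphorimaged and quantified by densitometry. Relative sub-library phosphorylation is a ratio to the mean residue at that position.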

Sequence of RIPK1, construct: aa1-327 (Q13546 1-327, looked up): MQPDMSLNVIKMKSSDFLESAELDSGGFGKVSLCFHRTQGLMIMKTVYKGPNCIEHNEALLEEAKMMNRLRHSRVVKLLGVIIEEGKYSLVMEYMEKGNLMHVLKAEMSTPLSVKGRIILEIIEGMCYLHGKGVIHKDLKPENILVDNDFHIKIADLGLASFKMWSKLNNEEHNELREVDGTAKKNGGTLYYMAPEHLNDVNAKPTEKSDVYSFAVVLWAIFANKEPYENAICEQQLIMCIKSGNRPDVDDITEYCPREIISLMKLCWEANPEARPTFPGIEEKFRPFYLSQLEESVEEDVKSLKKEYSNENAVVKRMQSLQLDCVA
Sequence of AURKA, construct: Full length (O14965 whole entry, looked up): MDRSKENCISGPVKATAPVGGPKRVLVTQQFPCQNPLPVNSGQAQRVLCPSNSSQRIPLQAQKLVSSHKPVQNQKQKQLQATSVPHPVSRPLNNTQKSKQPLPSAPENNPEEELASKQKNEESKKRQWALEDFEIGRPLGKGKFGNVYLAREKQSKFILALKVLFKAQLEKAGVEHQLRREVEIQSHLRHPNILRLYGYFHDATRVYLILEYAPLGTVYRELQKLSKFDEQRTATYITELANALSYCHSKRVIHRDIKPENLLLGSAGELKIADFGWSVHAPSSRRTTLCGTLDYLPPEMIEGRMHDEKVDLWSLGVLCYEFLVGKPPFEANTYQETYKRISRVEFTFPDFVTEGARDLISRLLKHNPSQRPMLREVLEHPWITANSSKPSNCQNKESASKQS

For “PRKACB, construct: Full length (from UniProt P22694)”, the relative phosphorylation was 0.625.

Same assay, conditions: G fixed; at -4

Point of comparison: “RIPK1, construct: aa1-327 (from UniProt Q13546)”, relative phosphorylation 1.27. Against it:
- AURKA, construct: Full length (from UniProt O14965) — lower, 1.23
- PRKACB, construct: Full length (from UniProt P22694) — higher, 1.51

Same assay, conditions: G fixed; at -5

Point of comparison: “AURKA, construct: Full length (from UniProt O14965)”, relative phosphorylation 1.18. Against it:
- RIPK1, construct: aa1-327 (from UniProt Q13546) — the same, 1.18
- PRKACB, construct: Full length (from UniProt P22694) — higher, 1.42

Same assay, conditions: H fixed; at +1

Point of comparison: “PRKACB, construct: Full length (from UniProt P22694)”, relative phosphorylation 1.22. Against it:
- RIPK1, construct: aa1-327 (from UniProt Q13546) — lower, 0.809
- AURKA, construct: Full length (from UniProt O14965) — lower, 0.665

Same assay, conditions: H fixed; at +2

Point of comparison: “AURKA, construct: Full length (from UniProt O14965)”, relative phosphorylation 1.3. Against it:
- RIPK1, construct: aa1-327 (from UniProt Q13546) — lower, 1.29
- PRKACB, construct: Full length (from UniProt P22694) — higher, 1.7

Same assay, conditions: H fixed; at +3

Point of comparison: “PRKACB, construct: Full length (from UniProt P22694)”, relative phosphorylation 1.45. Against it:
- RIPK1, construct: aa1-327 (from UniProt Q13546) — lower, 1.04
- AURKA, construct: Full length (from UniProt O14965) — lower, 1.32

Same assay, conditions: H fixed; at +4

Point of comparison: “RIPK1, construct: aa1-327 (from UniProt Q13546)”, relative phosphorylation 1.07. Against it:
- AURKA, construct: Full length (from UniProt O14965) — higher, 1.18
- PRKACB, construct: Full length (from UniProt P22694) — lower, 1.05

Same assay, conditions: H fixed; at -1

Point of comparison: “PRKACB, construct: Full length (from UniProt P22694)”, relative phosphorylation 1.22. Against it:
- RIPK1, construct: aa1-327 (from UniProt Q13546) — higher, 1.52
- AURKA, construct: Full length (from UniProt O14965) — lower, 1.09

Same assay, conditions: H fixed; at -2

Point of comparison: “PRKACB, construct: Full length (from UniProt P22694)”, relative phosphorylation 0.786. Against it:
- RIPK1, construct: aa1-327 (from UniProt Q13546) — higher, 1.18
- AURKA, construct: Full length (from UniProt O14965) — lower, 0.341

Same assay, conditions: H fixed; at -3

Point of comparison: “PRKACB, construct: Full length (from UniProt P22694)”, relative phosphorylation 1.34. Against it:
- RIPK1, construct: aa1-327 (from UniProt Q13546) — lower, 0.977
- AURKA, construct: Full length (from UniProt O14965) — lower, 0.964

Same assay, conditions: H fixed; at -4

Point of comparison: “RIPK1, construct: aa1-327 (from UniProt Q13546)”, relative phosphorylation 0.908. Against it:
- AURKA, construct: Full length (from UniProt O14965) — higher, 0.952
- PRKACB, construct: Full length (from UniProt P22694) — higher, 1.27

Same assay, conditions: H fixed; at -5

Point of comparison: “AURKA, construct: Full length (from UniProt O14965)”, relative phosphorylation 1.08. Against it:
- RIPK1, construct: aa1-327 (from UniProt Q13546) — higher, 1.12
- PRKACB, construct: Full length (from UniProt P22694) — higher, 1.22

Same assay, conditions: I fixed; at +1

Point of comparison: “AURKA, construct: Full length (from UniProt O14965)”, relative phosphorylation 1.66. Against it:
- RIPK1, construct: aa1-327 (from UniProt Q13546) — lower, 1.1
- PRKACB, construct: Full length (from UniProt P22694) — lower, 1.21

Same assay, conditions: I fixed; at +2

Point of comparison: “PRKACB, construct: Full length (from UniProt P22694)”, relative phosphorylation 0.573. Against it:
- RIPK1, construct: aa1-327 (from UniProt Q13546) — higher, 1.28
- AURKA, construct: Full length (from UniProt O14965) — higher, 1.03

Same assay, conditions: I fixed; at +3

Point of comparison: “AURKA, construct: Full length (from UniProt O14965)”, relative phosphorylation 0.865. Against it:
- RIPK1, construct: aa1-327 (from UniProt Q13546) — higher, 1.19
- PRKACB, construct: Full length (from UniProt P22694) — lower, 0.488

Same assay, conditions: I fixed; at +4

Point of comparison: “AURKA, construct: Full length (from UniProt O14965)”, relative phosphorylation 0.931. Against it:
- RIPK1, construct: aa1-327 (from UniProt Q13546) — higher, 1.27
- PRKACB, construct: Full length (from UniProt P22694) — lower, 0.705

Same assay, conditions: I fixed; at -1

Point of comparison: “PRKACB, construct: Full length (from UniProt P22694)”, relative phosphorylation 0.265. Against it:
- RIPK1, construct: aa1-327 (from UniProt Q13546) — higher, 1.12
- AURKA, construct: Full length (from UniProt O14965) — higher, 0.637

Same assay, conditions: I fixed; at -2

Point of comparison: “PRKACB, construct: Full length (from UniProt P22694)”, relative phosphorylation 0.2. Against it:
- RIPK1, construct: aa1-327 (from UniProt Q13546) — higher, 1.07
- AURKA, construct: Full length (from UniProt O14965) — lower, 0.162

Same assay, conditions: I fixed; at -3

Point of comparison: “PRKACB, construct: Full length (from UniProt P22694)”, relative phosphorylation 0.127. Against it:
- RIPK1, construct: aa1-327 (from UniProt Q13546) — higher, 0.944
- AURKA, construct: Full length (from UniProt O14965) — higher, 0.46

Same assay, conditions: I fixed; at -4

Point of comparison: “AURKA, construct: Full length (from UniProt O14965)”, relative phosphorylation 0.706. Against it:
- RIPK1, construct: aa1-327 (from UniProt Q13546) — higher, 1.04
- PRKACB, construct: Full length (from UniProt P22694) — lower, 0.471

Same assay, conditions: I fixed; at -5

Point of comparison: “PRKACB, construct: Full length (from UniProt P22694)”, relative phosphorylation 0.394. Against it:
- RIPK1, construct: aa1-327 (from UniProt Q13546) — higher, 1.28
- AURKA, construct: Full length (from UniProt O14965) — higher, 0.874

Same assay, conditions: K fixed; at +1

Point of comparison: “RIPK1, construct: aa1-327 (from UniProt Q13546)”, relative phosphorylation 1.33. Against it:
- AURKA, construct: Full length (from UniProt O14965) — lower, 0.241
- PRKACB, construct: Full length (from UniProt P22694) — lower, 1.06
